Test results reported in publication PMC9482650, “Quantitative fragmentomics allow affinity mapping of interactomes” (Nature Communications, 2022).

T1: APBA1_2, Q02410
T1 sequence (Q02410 742-832, limits assumed, looked up): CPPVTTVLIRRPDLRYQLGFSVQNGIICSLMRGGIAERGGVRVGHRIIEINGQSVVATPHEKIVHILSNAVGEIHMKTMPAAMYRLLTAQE

T2: PARD3B_1, Q8TEW8
T2 sequence (Q8TEW8 196-299, limits assumed, looked up): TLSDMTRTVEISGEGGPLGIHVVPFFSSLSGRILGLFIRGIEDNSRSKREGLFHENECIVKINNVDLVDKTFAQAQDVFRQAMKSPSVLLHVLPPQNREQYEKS

T3: SNTG1, Q9NSN8
T3 sequence (Q9NSN8 52-150, limits assumed, looked up): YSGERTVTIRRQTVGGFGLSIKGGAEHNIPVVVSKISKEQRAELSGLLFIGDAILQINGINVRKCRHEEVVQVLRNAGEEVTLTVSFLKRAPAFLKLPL

T4: CARD11, Q9BXL7
T4 sequence (Q9BXL7 662-765, limits assumed, looked up): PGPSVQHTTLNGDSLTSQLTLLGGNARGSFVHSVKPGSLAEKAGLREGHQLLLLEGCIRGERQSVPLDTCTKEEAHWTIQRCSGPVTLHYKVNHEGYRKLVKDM

T5: LRRC7, Q96NW7
T5 sequence (Q96NW7 1440-1537, limits assumed, looked up): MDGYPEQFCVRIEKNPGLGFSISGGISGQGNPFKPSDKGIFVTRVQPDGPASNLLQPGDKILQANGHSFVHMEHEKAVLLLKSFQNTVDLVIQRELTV

T6: NHERF3_3, Q5T2W1
T6 sequence (Q5T2W1 238-333, limits assumed, looked up): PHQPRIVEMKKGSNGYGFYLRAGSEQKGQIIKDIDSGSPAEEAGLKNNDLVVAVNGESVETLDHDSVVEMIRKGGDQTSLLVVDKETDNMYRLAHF

T7: SNTG2, Q9NY99
T7 sequence (Q9NY99 68-166, limits assumed, looked up): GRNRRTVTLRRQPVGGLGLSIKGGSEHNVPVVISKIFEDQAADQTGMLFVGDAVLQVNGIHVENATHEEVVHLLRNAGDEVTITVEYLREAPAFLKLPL

T8: MPP6, Q9NZW5
T8 sequence (Q9NZW5 125-219, limits assumed, looked up): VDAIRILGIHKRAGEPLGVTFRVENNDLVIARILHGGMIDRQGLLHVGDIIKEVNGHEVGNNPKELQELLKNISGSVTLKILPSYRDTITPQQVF

T9: NHERF3_1, Q5T2W1
T9 sequence (Q5T2W1 4-100, limits assumed, looked up): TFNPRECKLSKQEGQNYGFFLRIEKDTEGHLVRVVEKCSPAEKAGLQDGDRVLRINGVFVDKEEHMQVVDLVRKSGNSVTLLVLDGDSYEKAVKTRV


Target: DLG2_2, Q15700
Sequence (Q15700 189-283): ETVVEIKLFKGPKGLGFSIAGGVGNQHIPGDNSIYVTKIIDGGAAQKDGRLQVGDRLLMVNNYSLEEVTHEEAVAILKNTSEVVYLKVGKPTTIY
Test: holdup assay
Design: key: below the threshold = too weak to quantify, mostly under pKd 3.1 to 4
Conditions: plain residues with an end cap or a label only (N-terminal biotin on a linker: ado-ado)

Row | pKd | Binder
1 | 3.66 | IKLETKKTKL [SLC15A2, Q16348]
2 | below the threshold | NSTHNLKDYV [CLDN20, P56880]

Target: SCRIB_3, Q14160
Sequence (Q14160 999-1103): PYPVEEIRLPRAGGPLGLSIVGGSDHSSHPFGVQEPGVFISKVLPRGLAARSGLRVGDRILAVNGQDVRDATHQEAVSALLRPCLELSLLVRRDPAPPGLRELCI
Test: holdup assay
Design: key: below the threshold = too weak to quantify, mostly under pKd 3.1 to 4
Conditions: plain residues with an end cap or a label only (N-terminal biotin on a linker: ado-ado)

Row | pKd | Binder
3 | 3.77 | IKLETKKTKL [SLC15A2, Q16348]
4 | below the threshold | NSTHNLKDYV [CLDN20, P56880]

Target: T1, APBA1_2, Q02410
Test: holdup assay
Design: key: below the threshold = too weak to quantify, mostly under pKd 3.1 to 4
Conditions: plain residues with an end cap or a label only (N-terminal biotin on a linker: ado-ado)

Row | pKd | Binder
5 | 3.67 | IKLETKKTKL [SLC15A2, Q16348]
6 | 3.69 | NSTHNLKDYV [CLDN20, P56880]

Target: PICK1, Q9NRD5
Sequence (Q9NRD5 17-115): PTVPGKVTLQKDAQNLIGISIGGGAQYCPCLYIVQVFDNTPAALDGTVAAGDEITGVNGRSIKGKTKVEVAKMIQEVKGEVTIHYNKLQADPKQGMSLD
Test: holdup assay
Design: key: below the threshold = too weak to quantify, mostly under pKd 3.1 to 4
Conditions: plain residues with an end cap or a label only (N-terminal biotin on a linker: ado-ado)

Row | pKd | Binder
7 | below the threshold | IKLETKKTKL [SLC15A2, Q16348]
8 | below the threshold | NSTHNLKDYV [CLDN20, P56880]

Target: T2, PARD3B_1, Q8TEW8
Test: holdup assay
Design: key: below the threshold = too weak to quantify, mostly under pKd 3.1 to 4
Conditions: plain residues with an end cap or a label only (N-terminal biotin on a linker: ado-ado)

Row | pKd | Binder
9 | 3.77 | IKLETKKTKL [SLC15A2, Q16348]
10 | below the threshold | NSTHNLKDYV [CLDN20, P56880]

Target: NHERF4_4, Q86UT5
Sequence (Q86UT5 464-550): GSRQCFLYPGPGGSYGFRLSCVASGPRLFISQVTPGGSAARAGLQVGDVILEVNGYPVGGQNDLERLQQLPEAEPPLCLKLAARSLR
Test: holdup assay
Design: key: below the threshold = too weak to quantify, mostly under pKd 3.1 to 4
Conditions: plain residues with an end cap or a label only (N-terminal biotin on a linker: ado-ado)

Row | pKd | Binder
11 | below the threshold | IKLETKKTKL [SLC15A2, Q16348]
12 | below the threshold | NSTHNLKDYV [CLDN20, P56880]

Target: SCRIB_1, Q14160
Sequence (Q14160 718-814): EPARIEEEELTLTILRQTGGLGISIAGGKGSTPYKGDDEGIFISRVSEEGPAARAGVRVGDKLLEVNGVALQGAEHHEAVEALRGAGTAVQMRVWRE
Test: holdup assay
Design: key: below the threshold = too weak to quantify, mostly under pKd 3.1 to 4
Conditions: plain residues with an end cap or a label only (N-terminal biotin on a linker: ado-ado)

Row | pKd | Binder
13 | 3.79 | IKLETKKTKL [SLC15A2, Q16348]
14 | below the threshold | NSTHNLKDYV [CLDN20, P56880]

Target: T3, SNTG1, Q9NSN8
Test: holdup assay
Design: key: below the threshold = too weak to quantify, mostly under pKd 3.1 to 4
Conditions: plain residues with an end cap or a label only (N-terminal biotin on a linker: ado-ado)

Row | pKd | Binder
15 | 3.64 | IKLETKKTKL [SLC15A2, Q16348]
16 | below the threshold | NSTHNLKDYV [CLDN20, P56880]

Target: Inadl_3, Q8NI35
Sequence (Q8NI35 359-469): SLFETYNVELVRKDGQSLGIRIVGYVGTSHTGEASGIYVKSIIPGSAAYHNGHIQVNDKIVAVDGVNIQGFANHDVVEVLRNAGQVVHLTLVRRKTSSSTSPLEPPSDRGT
Test: holdup assay
Design: key: below the threshold = too weak to quantify, mostly under pKd 3.1 to 4
Conditions: plain residues with an end cap or a label only (N-terminal biotin on a linker: ado-ado)

Row | pKd | Binder
17 | below the threshold | IKLETKKTKL [SLC15A2, Q16348]
18 | below the threshold | NSTHNLKDYV [CLDN20, P56880]

Target: LIMK2, P53671
Sequence (P53671 143-248): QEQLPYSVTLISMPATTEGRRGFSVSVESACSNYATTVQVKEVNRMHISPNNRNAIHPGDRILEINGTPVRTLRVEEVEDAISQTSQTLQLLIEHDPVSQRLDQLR
Test: holdup assay
Design: key: below the threshold = too weak to quantify, mostly under pKd 3.1 to 4
Conditions: plain residues with an end cap or a label only (N-terminal biotin on a linker: ado-ado)

Row | pKd | Binder
19 | below the threshold | IKLETKKTKL [SLC15A2, Q16348]
20 | below the threshold | NSTHNLKDYV [CLDN20, P56880]

Target: GRIP2_6, Q9C0E4
Sequence (Q9C0E4 648-740): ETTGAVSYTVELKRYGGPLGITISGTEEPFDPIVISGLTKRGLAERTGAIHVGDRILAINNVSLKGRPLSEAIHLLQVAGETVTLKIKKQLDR
Test: holdup assay
Design: key: below the threshold = too weak to quantify, mostly under pKd 3.1 to 4
Conditions: plain residues with an end cap or a label only (N-terminal biotin on a linker: ado-ado)

Row | pKd | Binder
21 | 3.48 | IKLETKKTKL [SLC15A2, Q16348]
22 | below the threshold | NSTHNLKDYV [CLDN20, P56880]

Target: T4, CARD11, Q9BXL7
Test: holdup assay
Design: key: below the threshold = too weak to quantify, mostly under pKd 3.1 to 4
Conditions: plain residues with an end cap or a label only (N-terminal biotin on a linker: ado-ado)

Row | pKd | Binder
23 | below the threshold | IKLETKKTKL [SLC15A2, Q16348]
24 | below the threshold | NSTHNLKDYV [CLDN20, P56880]

Target: TJP1_3, Q07157
Sequence (Q07157 416-512): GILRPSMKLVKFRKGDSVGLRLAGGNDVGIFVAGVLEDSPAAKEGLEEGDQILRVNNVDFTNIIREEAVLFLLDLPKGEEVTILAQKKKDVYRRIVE
Test: holdup assay
Design: key: below the threshold = too weak to quantify, mostly under pKd 3.1 to 4
Conditions: plain residues with an end cap or a label only (N-terminal biotin on a linker: ado-ado)

Row | pKd | Binder
25 | 3.54 | IKLETKKTKL [SLC15A2, Q16348]
26 | below the threshold | NSTHNLKDYV [CLDN20, P56880]

Target: DLG5_1, Q8TDM6
Sequence (Q8TDM6 617-713): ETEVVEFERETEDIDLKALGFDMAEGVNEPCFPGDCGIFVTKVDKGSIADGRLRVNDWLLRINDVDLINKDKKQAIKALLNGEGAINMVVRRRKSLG
Test: holdup assay
Design: key: below the threshold = too weak to quantify, mostly under pKd 3.1 to 4
Conditions: plain residues with an end cap or a label only (N-terminal biotin on a linker: ado-ado)

Row | pKd | Binder
27 | 3.53 | IKLETKKTKL [SLC15A2, Q16348]
28 | below the threshold | NSTHNLKDYV [CLDN20, P56880]

Target: IL16_4, Q14005
Sequence (Q14005 1229-1329): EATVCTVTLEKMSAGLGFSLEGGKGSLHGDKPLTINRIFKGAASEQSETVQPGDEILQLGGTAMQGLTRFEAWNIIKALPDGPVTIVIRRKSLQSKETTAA
Test: holdup assay
Design: key: below the threshold = too weak to quantify, mostly under pKd 3.1 to 4
Conditions: plain residues with an end cap or a label only (N-terminal biotin on a linker: ado-ado)

Row | pKd | Binder
29 | 3.72 | IKLETKKTKL [SLC15A2, Q16348]
30 | 3.65 | NSTHNLKDYV [CLDN20, P56880]

Target: LNX1_1, Q8TBB1
Sequence (Q8TBB1 261-371): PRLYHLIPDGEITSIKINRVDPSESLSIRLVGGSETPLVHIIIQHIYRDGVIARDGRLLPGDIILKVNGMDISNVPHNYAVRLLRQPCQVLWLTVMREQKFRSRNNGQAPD
Test: holdup assay
Design: key: below the threshold = too weak to quantify, mostly under pKd 3.1 to 4
Conditions: plain residues with an end cap or a label only (N-terminal biotin on a linker: ado-ado)

Row | pKd | Binder
31 | 3.79 | IKLETKKTKL [SLC15A2, Q16348]
32 | below the threshold | NSTHNLKDYV [CLDN20, P56880]

Target: T5, LRRC7, Q96NW7
Test: holdup assay
Design: key: below the threshold = too weak to quantify, mostly under pKd 3.1 to 4
Conditions: plain residues with an end cap or a label only (N-terminal biotin on a linker: ado-ado)

Row | pKd | Binder
33 | below the threshold | IKLETKKTKL [SLC15A2, Q16348]
34 | below the threshold | NSTHNLKDYV [CLDN20, P56880]

Target: LDB3, O75112
Sequence (O75112 1-94): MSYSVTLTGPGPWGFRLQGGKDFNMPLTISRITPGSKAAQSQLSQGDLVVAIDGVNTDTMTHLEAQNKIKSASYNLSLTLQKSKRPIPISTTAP
Test: holdup assay
Design: key: below the threshold = too weak to quantify, mostly under pKd 3.1 to 4
Conditions: plain residues with an end cap or a label only (N-terminal biotin on a linker: ado-ado)

Row | pKd | Binder
35 | below the threshold | IKLETKKTKL [SLC15A2, Q16348]
36 | below the threshold | NSTHNLKDYV [CLDN20, P56880]

Target: DLG1_3, Q12959
Sequence (Q12959 457-571): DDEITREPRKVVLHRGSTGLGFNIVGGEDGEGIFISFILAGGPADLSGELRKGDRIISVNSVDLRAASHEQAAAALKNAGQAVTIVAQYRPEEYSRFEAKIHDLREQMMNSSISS
Test: holdup assay
Design: key: below the threshold = too weak to quantify, mostly under pKd 3.1 to 4
Conditions: plain residues with an end cap or a label only (N-terminal biotin on a linker: ado-ado)

Row | pKd | Binder
37 | 3.97 | IKLETKKTKL [SLC15A2, Q16348]
38 | below the threshold | NSTHNLKDYV [CLDN20, P56880]

Target: T6, NHERF3_3, Q5T2W1
Test: holdup assay
Design: key: below the threshold = too weak to quantify, mostly under pKd 3.1 to 4
Conditions: plain residues with an end cap or a label only (N-terminal biotin on a linker: ado-ado)

Row | pKd | Binder
39 | 4.67 | IKLETKKTKL [SLC15A2, Q16348]
40 | below the threshold | NSTHNLKDYV [CLDN20, P56880]

Target: PTPN3, P26045
Sequence (P26045 505-587): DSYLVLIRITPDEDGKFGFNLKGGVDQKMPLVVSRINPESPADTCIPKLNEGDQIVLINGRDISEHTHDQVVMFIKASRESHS
Test: holdup assay
Design: key: below the threshold = too weak to quantify, mostly under pKd 3.1 to 4
Conditions: plain residues with an end cap or a label only (N-terminal biotin on a linker: ado-ado)

Row | pKd | Binder
41 | below the threshold | IKLETKKTKL [SLC15A2, Q16348]
42 | below the threshold | NSTHNLKDYV [CLDN20, P56880]

Target: T7, SNTG2, Q9NY99
Test: holdup assay
Design: key: below the threshold = too weak to quantify, mostly under pKd 3.1 to 4
Conditions: plain residues with an end cap or a label only (N-terminal biotin on a linker: ado-ado)

Row | pKd | Binder
43 | 3.62 | IKLETKKTKL [SLC15A2, Q16348]
44 | below the threshold | NSTHNLKDYV [CLDN20, P56880]

Target: IL16_1, Q14005
Sequence (Q14005 210-306): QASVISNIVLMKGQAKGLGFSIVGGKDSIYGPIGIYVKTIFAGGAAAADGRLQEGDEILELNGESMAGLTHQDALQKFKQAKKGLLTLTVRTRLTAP
Test: holdup assay
Design: key: below the threshold = too weak to quantify, mostly under pKd 3.1 to 4
Conditions: plain residues with an end cap or a label only (N-terminal biotin on a linker: ado-ado)

Row | pKd | Binder
45 | below the threshold | IKLETKKTKL [SLC15A2, Q16348]
46 | below the threshold | NSTHNLKDYV [CLDN20, P56880]

Target: T8, MPP6, Q9NZW5
Test: holdup assay
Design: key: below the threshold = too weak to quantify, mostly under pKd 3.1 to 4
Conditions: plain residues with an end cap or a label only (N-terminal biotin on a linker: ado-ado)

Row | pKd | Binder
47 | below the threshold | IKLETKKTKL [SLC15A2, Q16348]
48 | below the threshold | NSTHNLKDYV [CLDN20, P56880]

Target: MAGI2_3, Q86UL8
Sequence (Q86UL8 600-682): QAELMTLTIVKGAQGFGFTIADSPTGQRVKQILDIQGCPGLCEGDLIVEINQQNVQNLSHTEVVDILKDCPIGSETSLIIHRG
Test: holdup assay
Design: key: below the threshold = too weak to quantify, mostly under pKd 3.1 to 4
Conditions: plain residues with an end cap or a label only (N-terminal biotin on a linker: ado-ado)

Row | pKd | Binder
49 | 3.6 | IKLETKKTKL [SLC15A2, Q16348]
50 | below the threshold | NSTHNLKDYV [CLDN20, P56880]

Target: GRASP, Q7Z6J2
Sequence (Q7Z6J2 96-193): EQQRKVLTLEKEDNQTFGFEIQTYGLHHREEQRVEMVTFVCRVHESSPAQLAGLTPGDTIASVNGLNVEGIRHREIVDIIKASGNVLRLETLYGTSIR
Test: holdup assay
Design: key: below the threshold = too weak to quantify, mostly under pKd 3.1 to 4
Conditions: plain residues with an end cap or a label only (N-terminal biotin on a linker: ado-ado)

Row | pKd | Binder
51 | 4.42 | IKLETKKTKL [SLC15A2, Q16348]
52 | 3.47 | NSTHNLKDYV [CLDN20, P56880]

Target: AHNAK1, Q09666
Sequence (Q09666 4-100): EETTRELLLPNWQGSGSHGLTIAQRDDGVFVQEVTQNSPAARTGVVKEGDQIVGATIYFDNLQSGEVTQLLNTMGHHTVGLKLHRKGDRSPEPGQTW
Test: holdup assay
Design: key: below the threshold = too weak to quantify, mostly under pKd 3.1 to 4
Conditions: plain residues with an end cap or a label only (N-terminal biotin on a linker: ado-ado)

Row | pKd | Binder
53 | below the threshold | IKLETKKTKL [SLC15A2, Q16348]
54 | below the threshold | NSTHNLKDYV [CLDN20, P56880]

Target: T9, NHERF3_1, Q5T2W1
Test: holdup assay
Design: key: below the threshold = too weak to quantify, mostly under pKd 3.1 to 4
Conditions: plain residues with an end cap or a label only (N-terminal biotin on a linker: ado-ado)

Row | pKd | Binder
55 | 4.7 | IKLETKKTKL [SLC15A2, Q16348]
56 | 4.19 | NSTHNLKDYV [CLDN20, P56880]
